Results published in patent US9156883B2, “Binding molecules for human factor VIII and factor VIII-like proteins” (DYAX CORP., priority 1999, dated 2015).
Positions of bridges follow the written chain, without caps; N, C: chain ends. No end group written: not given here. *: point of attachment. NHNH2 = NN*

Columns and labels:
[1] = target: T1, factor VIII-like polypeptide (REFACTO®) (Homo sapiens, UniProt P00451); test: Affinity chromatography capture and elution of REFACTO® on immobilized peptide columns; assay type: binding; details: bound material eluted in the presence of ethylene glycol
T1 construct: amino acids 1-743 and 1638 through 2332 of human factor VIII; purchased Genetics Institute, Inc. (Cambridge, Mass.)
T1 sequence (P00451 20-762): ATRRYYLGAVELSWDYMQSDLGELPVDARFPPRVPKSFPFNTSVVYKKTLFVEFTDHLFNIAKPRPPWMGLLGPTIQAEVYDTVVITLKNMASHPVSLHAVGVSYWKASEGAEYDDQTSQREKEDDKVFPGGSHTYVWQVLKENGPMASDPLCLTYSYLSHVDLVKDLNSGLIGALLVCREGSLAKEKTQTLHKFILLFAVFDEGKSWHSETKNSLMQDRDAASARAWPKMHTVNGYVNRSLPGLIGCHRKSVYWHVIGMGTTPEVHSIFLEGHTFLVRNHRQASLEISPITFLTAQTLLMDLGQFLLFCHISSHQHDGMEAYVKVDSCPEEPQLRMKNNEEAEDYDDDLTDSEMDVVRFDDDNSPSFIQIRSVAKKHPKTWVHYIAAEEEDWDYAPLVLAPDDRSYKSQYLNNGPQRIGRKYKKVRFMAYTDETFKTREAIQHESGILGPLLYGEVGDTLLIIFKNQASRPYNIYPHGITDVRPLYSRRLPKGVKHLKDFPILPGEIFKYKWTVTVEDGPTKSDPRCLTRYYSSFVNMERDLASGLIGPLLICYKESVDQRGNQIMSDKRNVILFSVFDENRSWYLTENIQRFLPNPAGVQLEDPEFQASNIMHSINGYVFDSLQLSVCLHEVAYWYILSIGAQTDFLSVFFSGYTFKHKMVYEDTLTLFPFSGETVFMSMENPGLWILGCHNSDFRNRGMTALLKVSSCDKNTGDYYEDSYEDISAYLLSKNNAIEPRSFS
T1 sequence (P00451 1657-2351): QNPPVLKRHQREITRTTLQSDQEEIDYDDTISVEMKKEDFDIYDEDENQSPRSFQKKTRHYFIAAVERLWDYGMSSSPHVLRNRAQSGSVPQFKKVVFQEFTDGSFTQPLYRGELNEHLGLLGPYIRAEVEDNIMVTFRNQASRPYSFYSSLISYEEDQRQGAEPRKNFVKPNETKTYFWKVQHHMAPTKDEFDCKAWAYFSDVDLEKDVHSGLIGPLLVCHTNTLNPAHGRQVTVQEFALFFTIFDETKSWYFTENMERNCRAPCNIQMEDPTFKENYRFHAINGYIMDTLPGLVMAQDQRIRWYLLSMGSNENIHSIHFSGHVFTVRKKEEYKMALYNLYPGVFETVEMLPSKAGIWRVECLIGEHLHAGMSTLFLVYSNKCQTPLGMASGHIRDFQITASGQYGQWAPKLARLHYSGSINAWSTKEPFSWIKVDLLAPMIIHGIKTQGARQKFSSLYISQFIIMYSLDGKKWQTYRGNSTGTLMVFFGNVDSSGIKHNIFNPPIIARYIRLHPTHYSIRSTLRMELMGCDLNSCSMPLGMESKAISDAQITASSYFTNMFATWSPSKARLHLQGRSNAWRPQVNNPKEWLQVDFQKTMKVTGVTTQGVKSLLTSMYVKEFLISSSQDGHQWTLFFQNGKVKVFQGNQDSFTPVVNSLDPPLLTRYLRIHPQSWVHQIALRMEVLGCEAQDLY
Protocol: The candidate ligands were immobilized onto a formyl-substituted ethylene glycol-methacrylate chromatographic resin (Toyopearl Formyl 650-M, pore size of ˜1000 Å; TosoHaas, Montgomeryville, Pa.). The hydrazide-containing peptides were immobilized by facilitating hydrazone bond formation, the GI-1 and -2 peptides were immobilized via reductive amination using NaCNBH3. The amount of polypeptide immobilized on the solid support was determined by quantifying the amount of free polypeptide remaining in solution. The amount of ligand immobilized per ml of resin was in the range of 0.7-1.5 μmol for the hydrazine-immobilized peptides.
The nine peptides were evaluated by affinity chromatography for their ability to capture the REFACTO® described in Example I, under specific binding and release conditions.
The factor VIII-like polypeptide (REFACTO®) was diluted in SP Buffer to a concentration of 150 μg/ml. The affinity resins (˜350 μl) were each packed into glass columns, and approximately 150 μg of the factor VIII target was applied to the prepared affinity columns at a flow rate of 200 μl/minute (linear velocity of 170 cm/hour). […] Fractions were collected and the mass and activity of recovered factor VIII-like polypeptide was determined by reversed-phase HPLC and by enzymatic assay.
For the mass determination, a standard curve with REFACTO® (0-200 μg) was generated and the amount present in each fraction was calculated according to techniques well known in the art. Reversed-phase HPLC in the presence of 20 mM EDTA was used to disrupt the REFACTO® molecule into its component subunits, which were eluted with a gradient of acetonitrile/0.01% TFA. The activity assay was a Factor IX-, X-based assay. The results for each affinity resin are set forth below (Table 6).

[2] = Peptide stability, Asp-Pro changed to Glu-Pro; assay type: physicochemical; details: DP changed to EP versus GI-2; Asp-Pro hydrolysis particularly at low pH
Description: Binding polypeptides were synthesized with the amino terminal residue acetylated and the carboxyl terminal residue as a free acid. The two cysteine residues are oxidized and form a disulfide bond which creates a cyclic peptide structure. The residues contained within the cyclic structure are underlined. The peptide sequence is identical to the sequence GI-2 shown in Table 4 except that the aspartic acid residue at position 19 has been changed to glutamic acid (bold).

[3] = target: T2, REFACTO® (factor VIII-like polypeptide, amino acids 1-743 and 1638 through 2332 of human factor VIII) (Homo sapiens, UniProt P00451); test: Phage ELISA of third-round isolates for binding to the factor VIII target; details: TN7 library phage isolates; HRP anti-M13, TMB, absorbance at OD630
T2 construct: amino acids 1-743 and 1638 through 2332 of human factor VIII; purchased Genetics Institute, Inc. (Cambridge, Mass.)
T2 sequence (P00451 20-762): T1 sequence (P00451 20-762)
T2 sequence (P00451 1657-2351): T1 sequence (P00451 1657-2351)
Description: The techniques described above were employed to isolate high affinity binding molecules for ligands for recombinantly produced factor VIII-like polypeptide consisting of two segments of human factor VIII, i.e., amino acids 1-743 and 1638 through 2332 of human factor VIII, as described in U.S. Pat. No. 5,661,008 (Almstedt et al.), obtained under the commercial designation of REFACTO® from Genetics Institute, Inc. (Cambridge, Mass.). The REFACTO® target was provided at a concentration of about 530 μg/ml (7800 IU/ml) in 19.4 mM His, 300 mM NaCl, 3.4 mM CaCl2 and 0.1% Tween 80, pH 7.0.
Three libraries, designated TN7 (5×10^9 amino acid sequence diversity), TN8 (6×10^9 amino acid sequence diversity), and TN9 (5×10^9 amino acid sequence diversity), were constructed for expression of diversified polypeptides on M13 phage. Each library was screened for binders to purified REFACTO®. Each of the libraries was constructed to display a microprotein based on an 11- or 12-amino acid template. The TN7 library utilized a template sequence of Xaa-Xaa-Cys-Xaa-Xaa-Xaa-Xaa-Xaa-Cys-Xaa-Xaa; the TN8 library utilized a template sequence of Xaa-Xaa-Cys-Xaa-Xaa-Xaa-Xaa-Xaa-Xaa-Cys-Xaa-Xaa; the TN9 library utilized a template sequence of Xaa-Cys-Xaa-Xaa-Xaa-Xaa-Xaa-Xaa-Xaa-Cys-Xaa.
Three rounds of screenings were carried out for each library. At the conclusion of the third round of screening eluted phage were propagated, and individual isolates from each library (96 per elution condition) were selected randomly and tested by standard ELISA techniques for binding to the factor VIII target. Bound phage were detected with HRP conjugated anti-M13 polyclonal antibody (Pharmacia). TMB Peroxidase substrate was used for HRP in the ELISA detection mechanism. TMB substrate produces a blue color after peroxidase digestion. The color is quantitated by absorbance at OD630. Phage isolates that provided a significant signal (OD630>0.25) above background were considered positive clones.
Sequence data from the phage isolates were grouped by library and sorted according to the degree of similarity. The frequency at which any given sequence was obtained was noted since this indicates selection for a specific binder.

## AEGTGDFCWVFPFQHCADPGPEGGGS-NHNH2 (disulfide 8-16 (inferred)) [CS-459]
[1]
  capture of the factor VIII target by the affinity resin (in words): captured virtually all of the factor VIII target applied

## AEGTGDFHCIGVWFCLHDPGPEGGGS-NHNH2 (disulfide 9-15 (inferred)) [CS-455]
[1]
  capture of the factor VIII target by the affinity resin (in words): inability of the CS-455 and GI-1 resins to capture the target

## AEGTGDHPCGSWLRPCLHDPGPEGGGS-NHNH2 (disulfide 9-16 (inferred)) [CS-453]
[1]
  capture of the factor VIII target by the affinity resin (in words): captured virtually all of the factor VIII target applied

## Ac-AEGTGDRLCSWVSPCSADPEGGGSK (cysteine pairing not given here) [GI-1]
[1]
  capture of the factor VIII target by the affinity resin (in words): inability of the CS-455 and GI-1 resins to capture the target

## Acetyl-AEGTGDHRCGSWLHPCLAEPGEGGGGSK (Ac-AEGTGDHRCGSWLHPCLAEPGEGGGGSK; disulfide 9-16 (inferred)) [TN8.2, cyclic disulfide peptide, GI-2 with Asp at position 19 changed to Glu]
[2]
  peptide stability (in words): improved peptide stability

## D04 (RLCSWISPCSA; Selected Phage Display Sequence)
[3]
  ELISA signal: 0.3
